Numbering of substitutions follows the chain as printed.
B1: Chimeric VH + VL (antibody, human IgG1, kappa, V domains shown)
VH: EVKLVESGGGLVKPGGSLKLSCAASGFTFSSYGMSWVRQTPEKRLEWVAIISGGGRDIYYLDSVKGRFTISRDNAKNNLYLQMSSLRSEDTAFYYCSSPIYDAYSFAYWGQGTLVTVSA
VL: DIVLVQSPATLSVTPGDSVSLSCRASQTISNNLHWYHQKSHESPRLLIKYASQSISGIPSRFSGSGSGTDFTLSINSVETEDFGMYFCQQSYSWPLTFGAGTNLELKR
notes: also called Parental mouse VH+VL combined with human Fc; parental antibody
B2: VH6 + VL1 (antibody, human IgG1, kappa, V domains shown)
VH: EVQLVESGGGLVQPGGSLRLSCAASGFTFSSYGMSWVRQAPGKRLEWVAIISGGGRDIYYLDSVKGRFTISRDNSKNTLYLQMNSLRAEDTAVYYCSSPIYDAYSFAYWGQGTLVTVSS
VL: EIVMTQSPATLSVSPGERATLSCRASQTISNNLHWYQQKPGQAPRLLIYYASQSISGIPARFSGSGSGTEFTLTISSLQSEDFAVYYCQQSYSWPLTFGGGTKLEIKR
notes: Humanized full-length IgG expressed in HEK293; For SPR it was captured from culture medium through its Fc; also called HC1 + LC1
B3: anti-PD-1 antibody VH7+VL6 (antibody, human IgG1, kappa, V domains shown)
VH: B2 VH with R44G, T78N
VL: B2 VL with M4L, Q37H, Y49K, A60S, E70D, Y87F
notes: also called HC2 + LC2
B4: VH7 + VL1 (antibody, human IgG1, kappa, V domains shown)
VH: B2 VH with R44G, T78N
VL: B2 VL
notes: Humanized full-length IgG expressed in HEK293; also called HC2 + LC1
B5: VH6 + VL6 (antibody, human IgG1, kappa, V domains shown)
VH: B2 VH
VL: B2 VL with M4L, Q37H, Y49K, A60S, E70D, Y87F
notes: Humanized full-length IgG expressed in HEK293; also called HC1 + LC2

Key:
[1] = target: T1, PD-1 (analyte of the SPR assay of Example 3) (human, UniProt Q15116 21-167, limits assumed); test: SPR (Biacore 8K), antibody captured by anti-human Fc, PD-1 as analyte
T1 construct: also called human PD-1
T1 sequence (Q15116 21-167 limits assumed): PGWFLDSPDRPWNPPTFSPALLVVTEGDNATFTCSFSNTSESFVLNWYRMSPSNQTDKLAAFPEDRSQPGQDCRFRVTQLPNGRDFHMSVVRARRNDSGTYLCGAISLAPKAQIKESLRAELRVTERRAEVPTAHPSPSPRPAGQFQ
Procedure: Anti-human Fc gamma specific antibody (Jackson ImmunoResearch #109-005-098) was immobilized onto the sensor chip using amine coupling method. […] After equilibration, PD-1 was injected for 200 seconds (association phase) followed by the injection of running buffer for 600s (dissociation phase). Responses of reference flow cell (flow cell 1) were subtracted from those of humanized antibodies flow cells during each cycle. The surface was regenerated before the injection of other humanized antibodies. The process was repeated until all antibodies are analyzed. The off-rates of humanized antibodies were obtained from fitting the experimental data locally to 1:1 interaction model using the Biacore 8K evaluation software. The antibodies were ranked by their dissociation rate constants (off-rates, kd).

[2] = target: T2, cynomolgus PD-1/His protein (ACROBiosystems #PD1-C5223) (cynomolgus, UniProt B0LAJ3 25-170); test: ELISA, plate coated with cynomolgus PD-1/His
T2 construct: Commercial protein
T2 sequence (B0LAJ3 entry or part of it limits assumed): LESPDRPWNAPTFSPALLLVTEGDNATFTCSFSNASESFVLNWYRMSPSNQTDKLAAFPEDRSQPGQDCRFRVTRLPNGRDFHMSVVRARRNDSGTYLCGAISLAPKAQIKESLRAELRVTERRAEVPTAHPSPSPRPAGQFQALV
Procedure: (§1) MaxiSorp 96-well plates (NUNC #449824) were coated with 2 μg/mL human PD-1/His (in-house production) or cynomolgus PD-1/His protein (ACROBiosystems #PD1-C5223) in 1× PBS (50 μL/well). Plates were incubated at 4° C. overnight. Coating solution was removed and plates were washed once with 200 μL/well PBST (1× PBS containing 0.05% tween-20). Then 200 μL/well blocking buffer (1× PBS with 0.05% tween-20, 3% BSA) was added and incubated at room temperature for 1 hour. Blocking buffer was removed and plates were washed with three times with 200 μL/well PBST. […] Plates were incubated at room temperature for 2 hours. Antibodies in the wells were removed and plates were washed three times with 200 μL/well PBST. Goat anti-human IgG (H&L)-HRP secondary antibody (Jackson Immuno Research #109-035-088) was diluted 1:5000 in 1× PBS and added to each well (50 μL/well). Plates were incubated at room temperature for 1 hour. Secondary antibody was removed and plates were washed five times with 200 μL/well PBST. 50 μL/well TMB (eBioscience #85-00-4201-56) was added and plates were incubated at room temperature for several minutes. Then 50 μL/well 2N H2SO4 was added to stop the reaction. Optical density was measured at 450 nm.

[3] = target: T3, his-tagged human PD-1 recombinant protein (PD-1/6His, in-house production, extracellular domain Pro21-Gln167) (human, UniProt Q15116 21-167); test: ELISA, plate coated with human PD-1/His; human PD-1
T3 construct: range 21-167; also called human PD-1/His; not shown: 6His tag
T3 sequence (Q15116 21-167 limits assumed): as the sequence (Q15116 21-167 limits assumed) above
Procedure: as §1

[4] = target: T4, chimeric PD-1 receptor on Jurkat cells (Jurkat/PD-1-CD3z/NF-luci cells) (human, UniProt Q15116 25-191; P20963 52-164, limits assumed); test: cell-based or functional assay
T4 sequence (Q15116 other isoform, or with tags, fused parts or gaps mutant limits assumed): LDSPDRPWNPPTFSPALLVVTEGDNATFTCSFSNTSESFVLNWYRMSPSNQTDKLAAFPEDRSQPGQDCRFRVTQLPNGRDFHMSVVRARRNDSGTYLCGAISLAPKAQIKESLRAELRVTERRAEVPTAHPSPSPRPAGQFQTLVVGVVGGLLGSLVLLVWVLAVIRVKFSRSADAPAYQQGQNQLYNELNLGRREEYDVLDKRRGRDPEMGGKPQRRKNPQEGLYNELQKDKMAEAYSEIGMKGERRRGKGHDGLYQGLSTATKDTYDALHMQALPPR

[5] = target: T4, chimeric PD-1 receptor on Jurkat cells …; test: flow cytometry on human PD-1-expressing Jurkat cells
Procedure: Then cells were washed once by FACS buffer (PBS with 2% FBS) and incubated with Alexa Fluor 594 AffiniPure Goat Anti-human IgG secondary antibody (Jackson ImmunoResearch #109-585-088) at 4° C. for 30 minutes. After washed once by FACS buffer, cells were resuspended in 200 μL FACS buffer. The cells after staining were analyzed by BD LSRFortessa Flow Cytometer.

Row | Binder | Kd [1] [pM] | koff [1] [s⁻¹] | kon [1] [M⁻¹ s⁻¹] | EC50 [2] [pM] | EC50 [3] [pM] | EC50 (nM), inhibition of luciferase signal [4] [nM] | EC50 [5] [pM]
1 | B1 | 787 | 0.000163 | 207000 | – | – | – | –
2 | B2 | 3570 | 0.000404 | 113000 | – | – | – | –
3 | B3 | 1410 | 0.000218 | 154000 | 400 | 100 | 0.38 | 2160
4 | B4 | 3040 | 0.000317 | 104000 | – | – | – | –
5 | B5 | 812 | 0.000127 | 156000 | – | – | – | –

Reference: patent US20240239892A1 (SUZHOU KANOVA BIOPHARMACEUTICAL, published 2024)
